Drawing on publication PMC5076501, this text covers response (integrated density (chaperones/DAT)) for 1 molecule.

One assay has as its target HSP70-1A, P0DMV8. Description: co-immunoprecipitation (anti-GFP IP) with immunoblot densitometry. Particulars: chain shown with the change; detergent lysates from stably transfected HEK293 cells; three independent experiments; parent: est. 0.32; read off a plot.
A further assay addresses T1, calnexin, P27824.
T1 chain: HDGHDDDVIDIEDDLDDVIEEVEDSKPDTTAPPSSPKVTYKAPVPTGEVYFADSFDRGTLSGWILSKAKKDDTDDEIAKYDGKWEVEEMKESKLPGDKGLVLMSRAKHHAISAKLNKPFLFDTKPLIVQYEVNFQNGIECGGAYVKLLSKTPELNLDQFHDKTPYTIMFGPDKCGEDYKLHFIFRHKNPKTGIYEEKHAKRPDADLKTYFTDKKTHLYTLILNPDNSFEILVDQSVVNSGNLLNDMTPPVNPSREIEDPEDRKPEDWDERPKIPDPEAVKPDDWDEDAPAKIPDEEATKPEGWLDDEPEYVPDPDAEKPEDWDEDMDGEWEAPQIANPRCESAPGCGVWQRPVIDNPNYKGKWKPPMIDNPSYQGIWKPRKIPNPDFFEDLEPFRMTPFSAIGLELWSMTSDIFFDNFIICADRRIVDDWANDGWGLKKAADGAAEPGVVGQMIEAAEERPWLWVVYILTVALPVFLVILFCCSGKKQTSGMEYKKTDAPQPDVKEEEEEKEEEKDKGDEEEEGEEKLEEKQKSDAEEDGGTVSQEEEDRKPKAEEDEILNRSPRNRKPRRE
The assay is described as above. The conditions noted are these: chain shown with the change; detergent lysates from stably transfected HEK293 cells; three independent experiments; parent: est. 0.73; read off a plot.

HSP70-1A, P0DMV8, sequence (P0DMV8 whole entry): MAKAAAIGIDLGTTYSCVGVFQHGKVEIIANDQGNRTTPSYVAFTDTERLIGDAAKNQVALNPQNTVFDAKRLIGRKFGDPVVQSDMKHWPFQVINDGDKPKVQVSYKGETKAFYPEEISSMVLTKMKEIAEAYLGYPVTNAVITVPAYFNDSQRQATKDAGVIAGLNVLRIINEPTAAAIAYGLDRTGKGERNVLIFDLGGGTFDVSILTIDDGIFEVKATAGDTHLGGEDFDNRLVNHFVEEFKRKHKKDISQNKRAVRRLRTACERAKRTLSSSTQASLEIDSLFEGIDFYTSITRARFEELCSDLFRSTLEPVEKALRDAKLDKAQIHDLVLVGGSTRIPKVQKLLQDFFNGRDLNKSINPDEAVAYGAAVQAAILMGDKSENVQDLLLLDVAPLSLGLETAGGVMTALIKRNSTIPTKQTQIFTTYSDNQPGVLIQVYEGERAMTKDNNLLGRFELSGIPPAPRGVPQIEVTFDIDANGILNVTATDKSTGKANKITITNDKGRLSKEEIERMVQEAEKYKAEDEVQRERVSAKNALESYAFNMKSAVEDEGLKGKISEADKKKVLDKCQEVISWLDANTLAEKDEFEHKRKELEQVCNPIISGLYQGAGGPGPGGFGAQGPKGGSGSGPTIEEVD

B1: YFP-tagged wild-type Drosophila melanogaster dopamine transporter, Q7K4Y6 G108Q (protein)
chain: MSPTGHISKSKTPTPHDNDNNSISDERETWSGKVDFLLSVIGFAVDLANVWRFPYLCYKNGGGAFLVPYGIMLVVGGIPLFYMELALGQHNRKGAITCWGRLVPLFKQIGYAVVLIAFYVDFYYNVIIAWSLRFFFASFTNSLPWTSCNNIWNTPNCRPFESQNASRVPVIGNYSDLYAMGNQSLLYNETYMNGSSLDTSAVGHVEGFQSAASEYFNRYILELNRSEGIHDLGAIKWDMALCLLIVYLICYFSLWKGISTSGKVVWFTALFPYAVLLILLIRGLTLPGSFLGIQYYLTPNFSAIYKAEVWVDAATQVFFSLGPGFGVLLAYASYNKYHNNVYKDALLTSFINSATSFIAGFVIFSVLGYMAHTLGVRIEDVATEGPGLVFVVYPAAIATMPASTFWALIFFMMLLTLGLDSSFGGSEAIITALSDEFPKIKRNRELFVAGLFSLYFVVGLASCTQGGFYFFHLLDRYAAGYSILVAVFFEAIAVSWIYGTNRFSEDIRDMIGFPPGRYWQVCWRFVAPIFLLFITVYGLIGYEPLTYADYVYPSWANALGWCIAGSSVVMIPAVAIFKLLSTPGSLRQRFTILTTPWRDQQSMAMVLNGVTTEVTVVRLTDTETAKEPVDV
With B1, the response (integrated density (chaperones/DAT)) was found to be 0.73 with HSP70-1A, P0DMV8 and 1.7 with calnexin, P27824.
